Test results published in the supplement of paper PMC7877785.
± gives the uncertainty stated by the source.

Test: self-splicing fitness, log relative to wild type (ln ratio); higher = more splicing; Tetrahymena group I intron in knt gene, E. coli kanamycin selection, DiMSum; sequences stand for … in CUCUCU…GGAGGGAAAAGUUAUCAGGCAUGCACCUGGUAGCUAGUCUUUAAACCAAUAGAUUGCAUCGGUUUAAAAGGCAAGACCGUCAAAUUGCGGGAAAGGGGUCAACAGCCGUUCAGUACCAAGUCUCAGGGGAAACUUUGAGAUGGCCUUGCAAAGGGUAUGGUAAUAAGCUGACGGACAUGGUCCUAACCACGCAGCCAAGUCCUAAGUCAACAGAUCUUCUGUUGAUAUGGAUGCAGUUCACAGACUAAAUGUCGGUCGGGGAAGAUGUAUUCUUCUCAUAAGAUAUAGUCGGACCUCUCCUUAAUGGGAGCUAGCGGAUGAAGUGAUGCAACACUGGAGCCGCUGGGAACUAAUUUGUAUGCGAAAGUAUAUUGAUUAGUUUUGGAGUACUCGUGGUCG
Method in brief: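 Pooled colonies went to amplicon sequencing on an Illumina HiSeq 2500 after six replicate transformations. The plates were LB agar with 100 μg/mL carbenicillin, 50 μM IPTG and 0.2% rhamnose, with or without 25 μg/mL kanamycin, incubated overnight at 37°C or 30°C. The E. coli BL21(DE3) library had all eight P1ex-region intron nucleotides randomised, the intron placed in the knt kanamycin-resistance gene on pET-22b(+). DiMSum fitness is the error-weighted combination of replicate fold changes, kanamycin against none, normalised to wild type.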

Sequence	self-splicing fitness (ln) (30 °C)	self-splicing fitness (ln) (37 °C)
CCAUAGCAAUAUUACGUGUA	-4.27 ± 0.25	-2.71 ± 0.22
CCAUAGCAAUAUUACGUUAA	-3.44 ± 0.34	-3.04 ± 0.38
CCAUAGCAAUAUUACGUUUU	-3.58 ± 0.16	-2.75 ± 0.17
CCCAAGCAAUAUUACGAAAC	-2.72 ± 0.22	-2.04 ± 0.27
CCCAAGCAAUAUUACGACAU	-3.83 ± 0.021	-2.8 ± 0.037
CCCAAGCAAUAUUACGAGCG	-2.62 ± 0.12	-2 ± 0.13
CCCAAGCAAUAUUACGAUGC	-4.67 ± 0.29	-2.15 ± 0.24
CCCAAGCAAUAUUACGCAAC	-3.16 ± 0.26	-2.71 ± 0.38
CCCAAGCAAUAUUACGCAAG	-3.34 ± 0.19	-2.86 ± 0.22
CCCAAGCAAUAUUACGCACG	-2.65 ± 0.17	-2.84 ± 0.43
CCCAAGCAAUAUUACGCCCA	-2.33 ± 0.24	-2.46 ± 0.25
CCCAAGCAAUAUUACGCCGA	-2.01 ± 0.32	–
CCCAAGCAAUAUUACGGAAA	-2.22 ± 0.15	-3.47 ± 0.3
CCCAAGCAAUAUUACGGAGU	-3.37 ± 0.11	-2.47 ± 0.11
CCCAAGCAAUAUUACGGAUG	-3.07 ± 0.1	-2.49 ± 0.11
CCCAAGCAAUAUUACGGCAA	-2.32 ± 0.14	-2.69 ± 0.16
CCCAAGCAAUAUUACGGCGG	-3.72 ± 0.23	-2.08 ± 0.21
CCCAAGCAAUAUUACGGGAC	-4.01 ± 0.18	-2.67 ± 0.15
CCCAAGCAAUAUUACGGGAG	-3.79 ± 0.13	-2.29 ± 0.13
CCCAAGCAAUAUUACGGGCG	-3.29 ± 0.17	-1.79 ± 0.15
CCCAAGCAAUAUUACGGGGA	-2.82 ± 0.13	-1.62 ± 0.09
CCCAAGCAAUAUUACGGGGU	-3.46 ± 0.12	-2.35 ± 0.16
CCCAAGCAAUAUUACGGUAC	-4.14 ± 0.23	-2.71 ± 0.17
CCCAAGCAAUAUUACGGUUC	-3.38 ± 0.13	-2.6 ± 0.18
CCCAAGCAAUAUUACGUCAC	-3.87 ± 0.2	-2.82 ± 0.15

Sequence	self-splicing fitness (ln) (30 °C)	self-splicing fitness (ln) (37 °C)
CCCAAGCAAUAUUACGUCCC	-3.35 ± 0.43	–
CCCAAGCAAUAUUACGUCUG	-3.87 ± 0.19	-2.18 ± 0.21
CCCAAGCAAUAUUACGUGGA	-0.971 ± 0.052	-0.376 ± 0.061
CCCAAGCAAUAUUACGUGUA	-2.85 ± 0.096	-2.3 ± 0.11
CCCAAGCAAUAUUACGUUCC	-3.87 ± 0.37	-2.3 ± 0.37
CCCCAGCAAUAUUACGACAG	-3.96 ± 0.12	-2.92 ± 0.14
CCCCAGCAAUAUUACGACAU	-3.936 ± 0.02	-2.94 ± 0.037
CCCCAGCAAUAUUACGACCC	-0.862 ± 0.32	–
CCCCAGCAAUAUUACGACUC	-2.97 ± 0.12	-2.11 ± 0.21
CCCCAGCAAUAUUACGAGUG	-3.21 ± 0.12	-2.92 ± 0.14
CCCCAGCAAUAUUACGAGUU	-4.17 ± 0.18	-2.31 ± 0.17
CCCCAGCAAUAUUACGAUUC	-3.81 ± 0.2	-2.46 ± 0.23
CCCCAGCAAUAUUACGCCUU	-3 ± 0.22	-2.4 ± 0.37
CCCCAGCAAUAUUACGCGAG	-3.18 ± 0.15	-3.14 ± 0.31
CCCCAGCAAUAUUACGGAAU	-3.31 ± 0.13	-2.4 ± 0.2
CCCCAGCAAUAUUACGGAGU	-4.02 ± 0.15	-2.75 ± 0.15
CCCCAGCAAUAUUACGGAUU	-4.3 ± 0.16	-2.37 ± 0.13
CCCCAGCAAUAUUACGGCCG	-3.62 ± 0.17	-1.88 ± 0.16
CCCCAGCAAUAUUACGGCUG	-4.06 ± 0.19	-1.99 ± 0.15
CCCCAGCAAUAUUACGGGGU	-3.9 ± 0.12	-2.54 ± 0.11
CCCCAGCAAUAUUACGGGUG	-3.8 ± 0.12	-2.91 ± 0.13
CCCCAGCAAUAUUACGGUAG	-2 ± 0.065	-1.31 ± 0.097
CCCCAGCAAUAUUACGGUGU	-3.26 ± 0.11	-1.94 ± 0.1
CCCCAGCAAUAUUACGGUUU	-3.85 ± 0.16	-3.12 ± 0.21
CCCCAGCAAUAUUACGUCAC	-4.02 ± 0.23	-2.93 ± 0.26

Sequence	self-splicing fitness (ln) (30 °C)	self-splicing fitness (ln) (37 °C)
CCCCAGCAAUAUUACGUCCA	-3.34 ± 0.19	-3.2 ± 0.28
CCCCAGCAAUAUUACGUCUC	-3.78 ± 0.16	-3.61 ± 0.19
CCCCAGCAAUAUUACGUGCU	-3.34 ± 0.14	-2.47 ± 0.16
CCCCAGCAAUAUUACGUUAG	-3.99 ± 0.15	-2.97 ± 0.15
CCCCAGCAAUAUUACGUUGA	-4.14 ± 0.13	-2.79 ± 0.12
CCCGAGCAAUAUUACGAAAC	–	-0.43 ± 0.4
CCCGAGCAAUAUUACGACUG	-4.27 ± 0.22	-2.56 ± 0.2
CCCGAGCAAUAUUACGAGAU	-3.49 ± 0.21	-2.59 ± 0.3
CCCGAGCAAUAUUACGAGGU	-3.75 ± 0.15	-3.11 ± 0.17
CCCGAGCAAUAUUACGAUUG	-2.74 ± 0.18	-2.63 ± 0.22
CCCGAGCAAUAUUACGAUUU	-3.84 ± 0.23	-2.15 ± 0.2
CCCGAGCAAUAUUACGCACC	-3.46 ± 0.28	-2.35 ± 0.4
CCCGAGCAAUAUUACGCACG	–	-3.26 ± 0.47
CCCGAGCAAUAUUACGCAGA	-3.96 ± 0.25	-2.71 ± 0.33
CCCGAGCAAUAUUACGCGGA	-3.21 ± 0.28	-2.23 ± 0.2
CCCGAGCAAUAUUACGCUAG	-3.59 ± 0.37	-1.73 ± 0.36
CCCGAGCAAUAUUACGCUGG	-3.13 ± 0.16	-2.68 ± 0.26
CCCGAGCAAUAUUACGCUUG	–	-2.06 ± 0.33
CCCGAGCAAUAUUACGGAAA	-2.2 ± 0.32	-1.57 ± 0.33
CCCGAGCAAUAUUACGGCAA	-3.03 ± 0.35	-2.32 ± 0.22
CCCGAGCAAUAUUACGGCAG	-2.53 ± 0.29	-2.65 ± 0.44
CCCGAGCAAUAUUACGGCUG	-4.35 ± 0.39	-2.72 ± 0.33
CCCGAGCAAUAUUACGUGGA	-3.08 ± 0.21	-2.81 ± 0.22
CCCGAGCAAUAUUACGUUCC	-2.86 ± 0.4	–
CCCGAGCAAUAUUACGUUGC	-3.75 ± 0.12	-2.71 ± 0.16

Sequence	self-splicing fitness (ln) (30 °C)	self-splicing fitness (ln) (37 °C)
CCCGAGCAAUAUUACGUUUG	-4.07 ± 0.23	-2.07 ± 0.14
CCCUAGCAAUAUUACGACGU	-3.83 ± 0.29	-3.29 ± 0.47
CCCUAGCAAUAUUACGACUG	-4.39 ± 0.36	-2.92 ± 0.27
CCCUAGCAAUAUUACGAGGA	-1.66 ± 0.074	-0.53 ± 0.075
CCCUAGCAAUAUUACGAUAU	-2.92 ± 0.15	-2.97 ± 0.27
CCCUAGCAAUAUUACGAUGA	-3.24 ± 0.18	-2.35 ± 0.2
CCCUAGCAAUAUUACGCAAG	-3.65 ± 0.28	-2.06 ± 0.23
CCCUAGCAAUAUUACGCAGC	-3 ± 0.17	-3.24 ± 0.35
CCCUAGCAAUAUUACGCAUG	-2.33 ± 0.14	-2.73 ± 0.2
CCCUAGCAAUAUUACGCCGG	-3.09 ± 0.17	-1.6 ± 0.22
CCCUAGCAAUAUUACGCCGU	-2.57 ± 0.25	-2.42 ± 0.39
CCCUAGCAAUAUUACGCGAC	-4.32 ± 0.36	-2.67 ± 0.33
CCCUAGCAAUAUUACGCGGG	-3.75 ± 0.23	-1.92 ± 0.2
CCCUAGCAAUAUUACGGAGU	-4.58 ± 0.36	-2.99 ± 0.35
CCCUAGCAAUAUUACGGAUU	-4.34 ± 0.23	-2.26 ± 0.16
CCCUAGCAAUAUUACGGCUA	-2.53 ± 0.17	-3.13 ± 0.31
CCCUAGCAAUAUUACGGGAC	-2.48 ± 0.18	-1.87 ± 0.23
CCCUAGCAAUAUUACGGUAU	-3.5 ± 0.14	-2.13 ± 0.14
CCCUAGCAAUAUUACGUAAG	-3.8 ± 0.18	-2.04 ± 0.17
CCCUAGCAAUAUUACGUAUA	-3.24 ± 0.25	-2.89 ± 0.4
CCCUAGCAAUAUUACGUCGG	-3.32 ± 0.22	-2.57 ± 0.23
CCCUAGCAAUAUUACGUCUG	-2.99 ± 0.18	-3.17 ± 0.22
